Experimental findings from patent US20250002575A1 (Genentech, published 2025) are described below.

Test [1] deals with T1, reduced recombinant human IL-33 (His-tagged, amino acids 112-270) (human, UniProt O95760 112-270).
T1 construct: range 112-270; Expressed in E. coli; kept in the reduced state (all four cysteines free) with TCEP; also called reduced hIL-33; hIL-33
T1 sequence: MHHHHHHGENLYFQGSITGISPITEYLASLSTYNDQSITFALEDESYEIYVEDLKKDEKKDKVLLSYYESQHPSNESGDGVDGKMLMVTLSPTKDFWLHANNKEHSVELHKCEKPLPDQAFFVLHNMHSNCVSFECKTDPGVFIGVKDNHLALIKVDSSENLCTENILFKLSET
As to the kind of experiment: SPR (Biacore), antibody captured, reduced hIL-33 as analyte. Here is the method:
(§1) A Series S Protein A sensor chip (Cytiva, Marlborough, MA, USA) was used to capture recombinant chimeric human IgG versions of anti-hIL-33 Abs using a BIACORE® 8 k instrument (Cytiva, Marlborough, MA, USA). Antibody binding to human histidine-tagged hIL-33 (Genentech, South San Francisco, CA, USA) was measured using multi-cycle kinetics. Sensorgrams were recorded using an injection time of 2 minutes with a flow rate of 30 μL/min, at 25° C. or 37° C., and with a running buffer of 10 mM N-2-hydroxyethylpiperazine-N′-2-ethanesulfonic acid (HEPES), pH 7.4, 150 mM sodium chloride (NaCl), 3 mM ethylenediaminetetraacetic acid (EDTA), and 0.005% TWEEN® 20. After injection, dissociation of hIL-33 from the antibody was monitored for 10 minutes in running buffer. The surface was regenerated between binding cycles with a 30 μL injection of 10 mM Glycine hydrochloric acid (HCl) pH 1.5. After subtraction of a blank containing running buffer only, sensorgrams were analyzed using a 1:1 Langmuir binding model with software supplied by the manufacturer to calculate the kinetics and binding constants.
For orientation: Surface plasmon resonance follows binding to a sensor surface in real time, without labels.

Test [2] deals with T1, reduced recombinant human IL-33 …. As to the kind of experiment: SPR (Biacore 8K), antibody captured on Protein A chip, reduced hIL-33 as analyte, multi-cycle kinetics, 25 C. The protocol: as §1

B1: rat/human chimeric anti-hIL-33 3F10 MAb (antibody, human IgG1, kappa, V domains shown)
VH: QVQLEESGPGLVQPSQTLSLTCTVSGFSLTSQNVHWVRQPPGKGLEWMGRMRFNGDTSYNSTLKSRLSISRDTSKNQVFLRLNSLQTDDTGTYYCARQRDNYGSYYFDDWGQGIMVTVSS
VL: DTVLTQSPALAVSPGERVTISCRASESVLTLLNWYQQKPGQHPKLLIYLASHLESGVPARFSGRGSGTDFTLTIDPVEADDTASYYCQQSWIDPWTFGGGTTLELKR
notes: Rat variable domains on human IgG1/kappa constant regions; also called clone 3F10; capture MAb
In general, Kd refers to the constant that tells how readily two partners part at equilibrium. The term koff denotes a measure of how fast the partners let go of each other. A word on the kon: it is the second-order rate constant of association. Regarding B1, the equilibrium dissociation constant (Kd) in test [1] amounted to 0.487 nM. Besides, in test [2], the Kd was determined as 0.777 nM, the koff was determined as 0.000243 s⁻¹ and the association rate constant (kon) came to 312000 M⁻¹ s⁻¹.

B2: rat IgG2a anti-human IL-33 clone 15.21C7 (antibody, V domains shown)
VH: EVQLVESGGGLVQPGTSLKLSCVASGFTFSDFWMSWVRQTPGKTMEWIADIKNDGSHTKYAPSLQNRFTISRDNAKNTLYLEVTDVRSEDTATYYCTRVGGTYTAYYWGHGVMVTVSS
VL: DIQMTQTPSSMPASLGERVTLSCRTSQGINTYLNWYQQKPDGTITPLIHYTSNLESGVPSRFSGSGFGTDYFLTISSLEPEDFAMYFCQQYASSPWTFGGGTKLELKK
notes: also called rat anti-reduced hIL-33 15.21C7 IgG2a
For the molecule B2, the Kd in test [1] is 0.338 nM. In test [2], the Kd is 0.291 nM, the koff was found to be 0.000146 s⁻¹ and the on-rate (kon) is 501000 M⁻¹ s⁻¹.
